# Assay results: PMC8298264, “Function of cofactor Akirin2 in the regulation of gene expression in model human neutrophil-like HL60 cells” (Bioscience Reports, 2021)
# System: human HL60 cells
# Assay: SWATH-MS proteomics, differential protein representation, akirin2 KO vs WT HL60 cells
# Assay type: cell-based
# Conditions: SWATH-MS, akirin2 KO vs WT HL60 cells; sheet "Under-represented in KO"
# Outline: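 Differential representation compares akirin2 KO with WT HL60 across three biological replicates, 5 µg digest each, acquired by data-independent SWATH on a 120-min gradient. Library built from combined IDA runs searched with Paragon; proteins accepted at 1% FDR, with total-area-sum normalization.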
Molecule,Fold Change,Log (Fold Change)
"sp¦Q52LJ0¦FA98B_HUMAN (protein, UniProt Q52LJ0 1-433, looked up) Protein FAM98B: MRGPEPGPQPTMEGDVLDTLEALGYKGPLLEEQALTKAAEGGLSSPEFSELCIWLGSQIKSLCNLEESITSAGRDDLESFQLEISGFLKEMACPYSVLISGDIKDRLKKKEDCLKLLLFLSTELQASQILQNKKHKNSQLDKNSEVYQEVQAMFDTLGIPKSTTSDIPHMLNQVESKVKDILSKVQKNHVGKPLLKMDLNSEQAEQLERINDALSCEYECRRRMLMKRLDVTVQSFGWSDRAKVKTDDIARIYQPKRYALSPKTTITMAHLLAAREDLSKIIRTSSGTSREKTACAINKVLMGRVPDRGGRPNEIEPPPPEMPPWQKRQEGGGGRGGWGGGGGGGGRGGGGGGGGRGGWGGGGGGWGGGGGGGGGWGGGGGGGRGGFQGRGDYGGRGGYGGRGGYGGRGYGDPYGGGGGGGGGGGGGGGYRRY",0.7848,-0.1053
"sp¦Q70J99¦UN13D_HUMAN (protein, UniProt Q70J99 1-1090, looked up) Protein unc-13 homolog D: MATLLSHPQQRPPFLRQAIKIRRRRVRDLQDPPPQMAPEIQPPSHHFSPEQRALLYEDALYTVLHRLGHPEPNHVTEASELLRYLQEAFHVEPEEHQQTLQRVRELEKPIFCLKATVKQAKGILGKDVSGFSDPYCLLGIEQGVGVPGGSPGSRHRQKAVVRHTIPEEETHRTQVITQTLNPVWDETFILEFEDITNASFHLDMWDLDTVESVRQKLGELTDLHGLRRIFKEARKDKGQDDFLGNVVLRLQDLRCREDQWYPLEPRTETYPDRGQCHLQFQLIHKRRATSASRSQPSYTVHLHLLQQLVSHEVTQHEAGSTSWDGSLSPQAATVLFLHATQKDLSDFHQSMAQWLAYSRLYQSLEFPSSCLLHPITSIEYQWIQGRLKAEQQEELAASFSSLLTYGLSLIRRFRSVFPLSVSDSPARLQSLLRVLVQMCKMKAFGELCPNTAPLPQLVTEALQTGTTEWFHLKQQHHQPMVQGIPEAGKALLGLVQDVIGDLHQCQRTWDKIFHNTLKIHLFSMAFRELQWLVAKRVQDHTTVVGDVVSPEMGESLFQLYISLKELCQLRMSSSERDGVLALDNFHRWFQPAIPSWLQKTYNEALARVQRAVQMDELVPLGELTKHSTSAVDLSTCFAQISHTARQLDWPDPEEAFMITVKFVEDTCRLALVYCSLIKARARELSSGQKDQGQAANMLCVVVNDMEQLRLVIGKLPAQLAWEALEQRVGAVLEQGQLQNTLHAQLQSALAGLGHEIRTGVRTLAEQLEVGIAKHIQKLVGVRESVLPEDAILPLMKFLEVELCYMNTNLVQENFSSLLTLLWTHTLTVLVEAAASQRSSSLASNRLKIALQNLEICFHAEGCGLPPKALHTATFQALQRDLELQAASSRELIRKYFCSRIQQQAETTSEELGAVTVKASYRASEQKLRVELLSASSLLPLDSNGSSDPFVQLTLEPRHEFPELAARETQKHKKDLHPLFDETFEFLVPAEPCRKAGACLLLTVLDYDTLGADDLEGEAFLPLREVPGLSGSEEPGEVPQTRLPLTYPAPNGDPILQLLEGRKGDREAQVFVRLRRHRAKQASQHALRPAP",0.785,-0.1051
"sp¦Q86W42¦THOC6_HUMAN (protein, UniProt Q86W42 1-341, looked up) THO complex subunit 6: MERAVPLAVPLGQTEVFQALQRLHMTIFSQSVSPCGKFLAAGNNYGQIAIFSLSSALSSEAKEESKKPVVTFQAHDGPVYSMVSTDRHLLSAGDGEVKAWLWAEMLKKGCKELWRRQPPYRTSLEVPEINALLLVPKENSLILAGGDCQLHTMDLETGTFTRVLRGHTDYIHCLALRERSPEVLSGGEDGAVRLWDLRTAKEVQTIEVYKHEECSRPHNGRWIGCLATDSDWMVCGGGPALTLWHLRSSTPTTIFPIRAPQKHVTFYQDLILSAGQGRCVNQWQLSGELKAQVPGSSPGLLSLSLNQQPAAPECKVLTAAGNSCRVDVFTNLGYRAFSLSF",0.7851,-0.1051
"sp¦P43490¦NAMPT_HUMAN (protein, UniProt P43490 1-491, looked up) Nicotinamide …: MNPAAEAEFNILLATDSYKVTHYKQYPPNTSKVYSYFECREKKTENSKLRKVKYEETVFYGLQYILNKYLKGKVVTKEKIQEAKDVYKEHFQDDVFNEKGWNYILEKYDGHLPIEIKAVPEGFVIPRGNVLFTVENTDPECYWLTNWIETILVQSWYPITVATNSREQKKILAKYLLETSGNLDGLEYKLHDFGYRGVSSQETAGIGASAHLVNFKGTDTVAGLALIKKYYGTKDPVPGYSVPAAEHSTITAWGKDHEKDAFEHIVTQFSSVPVSVVSDSYDIYNACEKIWGEDLRHLIVSRSTQAPLIIRPDSGNPLDTVLKVLEILGKKFPVTENSKGYKLLPPYLRVIQGDGVDINTLQEIVEGMKQKMWSIENIAFGSGGGLLQKLTRDLLNCSFKCSYVVTNGLGINVFKDPVADPNKRSKKGRLSLHRTPAGNFVTLEEGKGDLEEYGQDLLHTVFKNGKVTKSYSFDEIRKNAQLNIELEAAHH",0.7897,-0.1025
"sp¦O94874¦UFL1_HUMAN (protein, UniProt O94874 2-794, looked up) E3 UFM1-protein ligase 1: ADAWEEIRRLAADFQRAQFAEATQRLSERNCIEIVNKLIAQKQLEVVHTLDGKEYITPAQISKEMRDELHVRGGRVNIVDLQQVINVDLIHIENRIGDIIKSEKHVQLVLGQLIDENYLDRLAEEVNDKLQESGQVTISELCKTYDLPGNFLTQALTQRLGRIISGHIDLDNRGVIFTEAFVARHKARIRGLFSAITRPTAVNSLISKYGFQEQLLYSVLEELVNSGRLRGTVVGGRQDKAVFVPDIYSRTQSTWVDSFFRQNGYLEFDALSRLGIPDAVSYIKKRYKTTQLLFLKAACVGQGLVDQVEASVEEAISSGTWVDIAPLLPTSLSVEDAAILLQQVMRAFSKQASTVVFSDTVVVSEKFINDCTELFRELMHQKAEKEMKNNPVHLITEEDLKQISTLESVSTSKKDKKDERRRKATEGSGSMRGGGGGNAREYKIKKVKKKGRKDDDSDDESQSSHTGKKKPEISFMFQDEIEDFLRKHIQDAPEEFISELAEYLIKPLNKTYLEVVRSVFMSSTTSASGTGRKRTIKDLQEEVSNLYNNIRLFEKGMKFFADDTQAALTKHLLKSVCTDITNLIFNFLASDLMMAVDDPAAITSEIRKKILSKLSEETKVALTKLHNSLNEKSIEDFISCLDSAAEACDIMVKRGDKKRERQILFQHRQALAEQLKVTEDPALILHLTSVLLFQFSTHSMLHAPGRCVPQIIAFLNSKIPEDQHALLVKYQGLVVKQLVSQSKKTGQGDYPLNNELDKEQEDVASTTRKELQELSSSIKDLVLKSRKSSVTEE",0.7911,-0.1018
"sp¦Q15006¦EMC2_HUMAN (protein, UniProt Q15006 2-297, looked up) ER membrane protein complex …: AKVSELYDVTWEEMRDKMRKWREENSRNSEQIVEVGEELINEYASKLGDDIWIIYEQVMIAALDYGRDDLALFCLQELRRQFPGSHRVKRLTGMRFEAMERYDDAIQLYDRILQEDPTNTAARKRKIAIRKAQGKNVEAIRELNEYLEQFVGDQEAWHELAELYINEHDYAKAAFCLEELMMTNPHNHLYCQQYAEVKYTQGGLENLELSRKYFAQALKLNNRNMRALFGLYMSASHIASNPKASAKTKKDNMKYASWAASQINRAYQFAGRSKKETKYSLKAVEDMLETLQITQS",0.7911,-0.1017
"sp¦P50570¦DYN2_HUMAN (protein, UniProt P50570 1-870, looked up) Dynamin-2: MGNRGMEELIPLVNKLQDAFSSIGQSCHLDLPQIAVVGGQSAGKSSVLENFVGRDFLPRGSGIVTRRPLILQLIFSKTEHAEFLHCKSKKFTDFDEVRQEIEAETDRVTGTNKGISPVPINLRVYSPHVLNLTLIDLPGITKVPVGDQPPDIEYQIKDMILQFISRESSLILAVTPANMDLANSDALKLAKEVDPQGLRTIGVITKLDLMDEGTDARDVLENKLLPLRRGYIGVVNRSQKDIEGKKDIRAALAAERKFFLSHPAYRHMADRMGTPHLQKTLNQQLTNHIRESLPALRSKLQSQLLSLEKEVEEYKNFRPDDPTRKTKALLQMVQQFGVDFEKRIEGSGDQVDTLELSGGARINRIFHERFPFELVKMEFDEKDLRREISYAIKNIHGVRTGLFTPDLAFEAIVKKQVVKLKEPCLKCVDLVIQELINTVRQCTSKLSSYPRLREETERIVTTYIREREGRTKDQILLLIDIEQSYINTNHEDFIGFANAQQRSTQLNKKRAIPNQGEILVIRRGWLTINNISLMKGGSKEYWFVLTAESLSWYKDEEEKEKKYMLPLDNLKIRDVEKGFMSNKHVFAIFNTEQRNVYKDLRQIELACDSQEDVDSWKASFLRAGVYPEKDQAENEDGAQENTFSMDPQLERQVETIRNLVDSYVAIINKSIRDLMPKTIMHLMINNTKAFIHHELLAYLYSSADQSSLMEESADQAQRRDDMLRMYHALKEALNIIGDISTSTVSTPVPPPVDDTWLQSASSHSPTPQRRPVSSIHPPGRPPAVRGPTPGPPLIPVPVGAAASFSAPPIPSRPGPQSVFANSDLFPAPPQIPSRPVRIPPGIPPGVPSRRPPAAPSRPTIIRPAEPSLLD",0.7916,-0.1015
"sp¦Q9BTE7¦DCNL5_HUMAN (protein, UniProt Q9BTE7 1-237, looked up) DCN1-like protein 5: MPVKKKRKSPGVAAAVAEDGGLKKCKISSYCRSQPPARLISGEEHFSSKKCLAWFYEYAGPDEVVGPEGMEKFCEDIGVEPENIIMLVLAWKLEAESMGFFTKEEWLKGMTSLQCDCTEKLQNKFDFLRSQLNDISSFKNIYRYAFDFARDKDQRSLDIDTAKSMLALLLGRTWPLFSVFYQYLEQSKYRVMNKDQWYNVLEFSRTVHADLSNYDEDGAWPVLLDEFVEWQKVRQTS",0.7927,-0.1009

# Same assay, conditions: akirin2 KO vs WT HL60 cells; sheet "Under-represented in KO"
Molecule,Fold Change,Log (Fold Change)
"sp¦O95573¦ACSL3_HUMAN (protein, UniProt O95573 1-720, looked up) Fatty acid CoA ligase Acsl3: MNNHVSSKPSTMKLKHTINPILLYFIHFLISLYTILTYIPFYFFSESRQEKSNRIKAKPVNSKPDSAYRSVNSLDGLASVLYPGCDTLDKVFTYAKNKFKNKRLLGTREVLNEEDEVQPNGKIFKKVILGQYNWLSYEDVFVRAFNFGNGLQMLGQKPKTNIAIFCETRAEWMIAAQACFMYNFQLVTLYATLGGPAIVHALNETEVTNIITSKELLQTKLKDIVSLVPRLRHIITVDGKPPTWSEFPKGIIVHTMAAVEALGAKASMENQPHSKPLPSDIAVIMYTSGSTGLPKGVMISHSNIIAGITGMAERIPELGEEDVYIGYLPLAHVLELSAELVCLSHGCRIGYSSPQTLADQSSKIKKGSKGDTSMLKPTLMAAVPEIMDRIYKNVMNKVSEMSSFQRNLFILAYNYKMEQISKGRNTPLCDSFVFRKVRSLLGGNIRLLLCGGAPLSATTQRFMNICFCCPVGQGYGLTESAGAGTISEVWDYNTGRVGAPLVCCEIKLKNWEEGGYFNTDKPHPRGEILIGGQSVTMGYYKNEAKTKADFFEDENGQRWLCTGDIGEFEPDGCLKIIDRKKDLVKLQAGEYVSLGKVEAALKNLPLVDNICAYANSYHSYVIGFVVPNQKELTELARKKGLKGTWEELCNSCEMENEVLKVLSEAAISASLEKFEIPVKIRLSPEPWTPETGLVTDAFKLKRKELKTHYQADIERMYGRK",0.3507,-0.4551
